Results reported in PMC9282883.

Target: SARS-CoV-2 RBD WT (for SPR binding assays) (SARS-CoV-2) (UniProt P0DTC2)

## S309 IgG1 (antibody)
  IC50, neutralisation of authentic SARS-CoV-2 (SARS-CoV-2-Nluc) on Vero E6 cells: 0.0789 µg/mL
  IC90, neutralisation of authentic SARS-CoV-2 (SARS-CoV-2-Nluc) on Vero E6 cells: 0.3 µg/mL
